This note sets out measurements from the nanobody polyreactivity screen of Harvey et al. (2022).

This data set can be described thus: yeast display, Sf9 membrane polyspecificity reagent, FACS + sequencing; frameworks hold sequencing errors. The method, boiled down: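 After 36–48 hours of galactose induction, yeast (Saccharomyces cerevisiae BJ5465) displaying a synthetic nanobody library were stained at 4 °C for 1 hour with 10% biotinylated, detergent-solubilized Sf9 membrane reagent. Streptavidin microbeads enriched the stained cells before FACS sorting into low and high (top ~1%) gates on anti-HA and streptavidin fluorescence. Each clone's polyreactivity label reflects its gate of origin.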
Consider “QVQLVESGGGLVQAGGSLRLSCAASGSTFGYNAMGWYRQAPGKERELVAGISSGGSTNYADSVKGRFTISRDNAKNTVYLQMNSLKPEDTAVYYCNVDERQFSTVYPYRQFDYWGQVTQVTVSS”, for which the “polyreactivity (PSR sort gate)” value is recorded as “low polyreactivity”.

As to “QVQLQESGRRPGAAGGSPRMSCAASGNIFWVAVMGRYRQAPGKERELVASIGFGCTTYYADSVKCRFTISRDNAKNTVFLQLISLKPEDTAVYYCAAPLYDWGELDDWGQGTQVPVSS”, the “polyreactivity (PSR sort gate)” value is reported as “low polyreactivity”.

With “QVQLVESGGGLVQAGGSLRLSCAASGFTFEWNTMGWYRQAPGKERELVARINWSSGRTYYADSVKGRFTISRDNAKNTVYLQMNSLKPEDTAVYYCAASPYHSAYQNMDYWGQGTQVTVSS”, the “polyreactivity (PSR sort gate)” value was “high polyreactivity”.

Regarding “QVQLVESGGGLVQAGGSLRLSCAASGRIFRWNAMGWYRQAPGKERELVAAISSSGGRTYYADSVKGRFTISRDTAKNTVYLQMNSLKPEDTAVYYCAAYPFSDEYDYWGQGTQVTVSS”, the “polyreactivity (PSR sort gate)” value is given as “high polyreactivity”.

Regarding “QVQLVESGVGLVQAGGSLRLSCAASGSIFYDNAMGWYRQAPGKERELVAVITVSGDSTYYADSVKGRFTISRDNAKNTVYLQMNSLKPEDTAVYYCNTDAISGSHFWRYITFGYLDDYWGQGTQVTVSS”, the “polyreactivity (PSR sort gate)” value is reported as “low polyreactivity”.

As to “QVQLVESGGGLVQAGGSLRLSCAASGIFEWNAMGWYRQAPRTERELVAAISNSGGSTYYADSVKGRFTISRDNAKNTVYLQMNSLKPEDNAVYYCAARSKTPAWWYWNSYYIRDYWGQATQVTVSS”, the “polyreactivity (PSR sort gate)” value is recorded as “high polyreactivity”.

As to “QVQLVESGGGLDQAGGSLRLSCADSGFTSDGYAKGSYTQAPGKEREFVADINSDGSTNYADSVKARFTISRDNAKNTVYLQLNSLIPEDSAVYYCAKDQAAYYLIPWYPLHDYWGQGTQVTLSS”, the “polyreactivity (PSR sort gate)” value was “low polyreactivity”.

Consider “QVQLVESGGGLVQAGASLRLSCADSGRISESNDMGWNRQAPGKQRELVAAISSSGGSTYYADSVMGRFPISRDNAKNTVYLQMNSLKPEDTALYYCNAVYYRTVLKIGVYEYDYWGQGTQVTVSS”, for which the “polyreactivity (PSR sort gate)” value was “low polyreactivity”.

For “QVHLVESGGGLVQAGGSLRLSCAASGIIFDHYAMVWYRPAPGKERELVAAISTGGGNTYYADSLKGRFTISRDNAKNTVYLQMNSLKPEDTAVYYCNADVLWGRRWGDYYGYDYWGQGTQVTVSS”, the “polyreactivity (PSR sort gate)” value is “low polyreactivity”.

As to “QVQLVESGGGLVQAGGSLRLSCAASGRTFDTYAMGWYRQAPWKERELVAAITRRTYYADSVKGRFTISRDNAKNSVYLQMNSLKPEDTAVYYCAVRFLRKWTSSRHYGYWGQGTQVTVSS”, the “polyreactivity (PSR sort gate)” value is reported as “high polyreactivity”.

Consider “QVQLVESGGGLVQAGGSLRLSCAATGSIFYGNAMGWYRQAPGKERELVAAISWGAGSTYYADSVKGRFTISRDNAKNTVYLQMNSLKPEDTAVYYCNTLQITGWYDYWGQGTQVTVSS”, for which the “polyreactivity (PSR sort gate)” value is listed as “high polyreactivity”.

With “QVQLVESGGGLVQAGGSLRLSCAASGFTFTKYAMGWYRQAPGKERELVAAITSGTSTYYADSVKGRFTISRDNAKYTVYLQMNSLKPEVTAVYYCAAPLYGRYSYGYWGQCTQVTVSS”, the “polyreactivity (PSR sort gate)” value is listed as “high polyreactivity”.

“QVQLVESGGGLVQAGGSLRLSCAASGSTFQPYAMGWYRQAPGKEREFVATISGSAGSTYYADSVKGRFKISRDNAKNTVYLLMNSLKPEDTAVYYCNADSGWFGYDYWGQGTQVTVSS”: the “polyreactivity (PSR sort gate)” value is “low polyreactivity”.

Turning to “QVQLVESGGGLVQAGGSLRLSCAASGRTFEYYAMGWYRQAPGKEREFVAAISRRGDSTYYADSVKGRFTISRDNAKNTVYLQMNSLKPEDTAVYYCAAKSYSARTKYYYWGQGTQVTVSS”, the “polyreactivity (PSR sort gate)” value is recorded as “high polyreactivity”.

As for “QVQLVESGGGLVQAGGSLRLSCAASGFILYTYAMGWYRQAPGKERELVADIDSGDGTYYADSVKGRFTISRDNAKNTVYLQMNSLKPEDTAVYYCAAQVVTWSYVYDVPGYYRYDYWGQGTQVTVSS”, the “polyreactivity (PSR sort gate)” value is given as “low polyreactivity”.

With “QVQLVESGGGLVQAGGSRRLSCAASGSNFRNNAIGWYRQAPGKERELVAVISRRSGNTYYADSVKGRFTISRDNGKKTVYLPMHSLKPEDTAVYYCASDYCKSSIRGDYWGQGTQVTVSS”, the “polyreactivity (PSR sort gate)” value is reported as “low polyreactivity”.

Turning to “QVQLVESGGGLVQAGGRLRLSCAASGRIFGYYAMGWYRQAPGKERELVAAISYRGGTTYYADSVKGRFTISRDNAKNTVYLQMNSLKPEDTAVYYCAAAAKSGLDYWGQGTQVTVSS”, the “polyreactivity (PSR sort gate)” value is reported as “high polyreactivity”.

Consider “QVQLVESGGGLVQAGCSLRISCAASGFIFKRNAMGWYRQAPGKERELVAAITWRGGSTYYADSVKGRFTISRDTAKNTVYLQMNSLKPEDTAVYYCAADSYYPRGYRTGWSESAYVSWGQGTLVTVSS”, for which the “polyreactivity (PSR sort gate)” value was “high polyreactivity”.

Regarding “QVQLVESGGGLVQAGGSLRLSCAASGFISHKYAMGWYRHAHGKERELVAAISWSGTSTHYADSVKGRFTISRDNAKKTVYIQMKSLKPEDTAVYYCAARRYPVLKYDYWGEGTQVTVSS”, the “polyreactivity (PSR sort gate)” value is given as “high polyreactivity”.

Consider “QVQLVESGGGLVQAGGSLRLSCAASGIIVDFYAMGWYRQAPGKERELVAGISWGGGTTYYADSVKGRFTISRDNAKNTVYLQMNSLKPEDTAVYYCAAVAFQTRYYYWGQGTQVTVSS”, for which the “polyreactivity (PSR sort gate)” value is “high polyreactivity”.

“QVQLVESGGGLVQAGGSLRLSCAASGLTFRYYTMGLYRQAPGKERELVASITSGGITYYADSVKGRFTISRDNAKNTVYLQMYSLKPEDTAVYYCAKGSYRTTYGALGVKYGYWGQGTQVNVSS”: the “polyreactivity (PSR sort gate)” value is reported as “high polyreactivity”.

On to “QVQLVESGGGLVQAGGSLRLSCAASGITIVLYAMGWYRQAPGKERELVAAINIDGNTNYADSVKGRFTISRDNAKNTVYLQMNSLKPEDTAVYYCATYYYYPSWYLLYGEYNYWGQGTQVTVSS”, for which the “polyreactivity (PSR sort gate)” value is recorded as “low polyreactivity”.

Take “QVQLVESGGGLVQAGGSLRLSCAASGSIFVQYAMGWYRQAPGKERELVATISSSGGSTYYADSVKGRFTISRDNAKNTVYLQMNSLKPEDTAVYYCAADWTLDPSYGYYADDYWGQGTQVTVST”: the “polyreactivity (PSR sort gate)” value is on record as “low polyreactivity”.

Take “QVQLVESGGGLVQAGGSLRLSCAASVRIIDINAMGWSRQAPRKEREFVAGITSVGSTNYADSEKGRFTISRDNAKNTDYLDMNSLKPEDTAVYYCAADTSVHSEVDYWGQGTQVTVSS”: the “polyreactivity (PSR sort gate)” value is reported as “low polyreactivity”.

Consider “QGQLVESGGGIVQAGVSLRLSCAASGSIFTANAMGWYRQAPGKVRELVAAISRSGGRTYYADSVKGRFTISRDNAKNTVYLQMNSLNPEDTAVYYCNVGSFNTSGYDYWGQGTQVTVSS”, for which the “polyreactivity (PSR sort gate)” value is “high polyreactivity”.

In the case of “QVQLVEAGGGLVQAGGSLRLSCAASGRIFYYYAMGWYSQAPGKEREFVAAIRISGGSKNYADSVKGRFTISRDNAKNNVYLQMNSLKPEETAVYYSAARSKYSGIRRAYDYWGQGTQVTVSS”, the “polyreactivity (PSR sort gate)” value is given as “high polyreactivity”.

As for “QVQLVESGGGLVQAGGSLRISCAASGFIFDGYAMGWYRQAPGKERELVAAITYSGGSTYYADSLKGRFTISRDNAKNTVYLQMNRLKPEDTAVYYCNAEYSSFSVVQKDSDMDYWGQGTQVTVSS”, the “polyreactivity (PSR sort gate)” value was “low polyreactivity”.

On to “QVQLVESGGGLVQAGGSLRLSCAASGRTFGGNAMGWYRQAPGKERELVAAISGRGGSTYYADSVKGRFTISRDNAKNTVYLQMNSLKPEDTAVYYCAARSYLTPEYYYWGQGTQVTVSS”, for which the “polyreactivity (PSR sort gate)” value was “high polyreactivity”.

With “QVQLVESGGGLVQAGGSLRLSCAASGRTFVYYDMGWYRQAPGKERELVAAISRRGDTTYYADSVKGRFTISRDNAKNTVYLQMNSLKPVDTAVYYCNARSIKYGSWGQGTQVTVSS”, the “polyreactivity (PSR sort gate)” value was “high polyreactivity”.

“QVQLVESGGGVQAGGSLRLSCAASGRTFVPYAMGWYRQAPGKERELVAAISSIGDSTSYADSVKGRFTISRDNAKNTVYLQMNCLKPEDTAVYYFAAAEDRDRLVPKLDYWGQGTQVTVSS”: the “polyreactivity (PSR sort gate)” value is reported as “low polyreactivity”.
